Values of other authors, collected in patent US20250341526A1, “NOVEL DYES” (Quantum-Si Incorporated, priority 2024, published 2025).

Tested on: amino acid at a terminal position of a polypeptide
Conditions: Table 1, ClpS proteins; amino acid at terminal position; inferred from literature and/or demonstrated by the inventors; cited from earlier work

Molecule	Binding Pref.
PS559: ClpS amino acid recognition protein, SEQ ID NO: 73 (protein, listed as Planctomycetaceae bacterium) MNQAAISPNPDIKPNPSTHKKRASQRQPRYHVILWNDNDHTYHYVVTMLQKLFGHPPRTGIKMATEVDKKGKVIVLTTSREHAELKRDQIHAFGADKLIRRSKGAMAASIEPES	I, L, V
PS434: ClpS amino acid recognition protein, SEQ ID NO: 57 (protein) MSRLPWKQEAKFAATVIIDFPDATLEAPTIEKKEATEQQIEMPWNVVVHNDPVNLMSYVTMVFQRVFGYPRERAEKHMLEVHHSGRSILWSGLRERAELYVQQLHGYLLLATIEKTV	F, Y, W, L
PS426: ClpS amino acid recognition protein, SEQ ID NO: 49 (protein) MSIIEKTQENVAILEKVSINHEIILYNDDVNTFDHVIETLIRVCNHEELQAEQCAILVHYTGKCAVKTGSFDELQPLCLALLDAGLSAEIT	F, Y, W, L
PS371: ClpS amino acid recognition protein, SEQ ID NO: 4 (protein) MATETIERPRTRDPGSGLGGHWLVIVLNDDHNTFDHVAKTLARVIPGVTVDDGYRFADQIHQRGQAIVWRGPKEPAEHYWEQLQDAGLSMAPLERH	F, Y, W, L
PS553: ClpS amino acid recognition protein, SEQ ID NO: 67 (protein, listed as Planctomycetes bacterium) MPASASAVTEPPVSLPEAAAPRPKDRPKRQPRYHVILWNDDDHTYQYVVAMLRQLFGHPPEKGFTLAKQVDKDGRVVVLTTTKEHAELKRDQIHAFGADRLLARSKGSMSASIEPEASTG	I, L, V
PS435: ClpS amino acid recognition protein, SEQ ID NO: 58 (protein) MTLSVALGPDTQESTQTGTAVSTDTLTAPDIPWNLVIWNDPVNLMSYVSYVFQSYFGYSETKANKLMMEVHKKGRSIVAHGSKEQVEQHAVAMHGYGLWATVEKATGGNSGGGKSGGPGKGKGKRG	F, Y, W, L
PS425: ClpS amino acid recognition protein, SEQ ID NO: 48 (protein) MTHYFSNILRDQESPKINPKELEQIDVLEEKEHQIILYNDDVNTFEHVIDCLVKICEHNYLQAEQCAYIVHHSGKCSVKTGSLDELVPKCNALLEEGLSAEVV	F, Y, W, L
PS550: ClpS amino acid recognition protein, SEQ ID NO: 64 (protein, listed as Planctomycetes bacterium) MPTFTEPEVVNDTRILPPYHVILLNDDDHTYEYVIHMLQTLFGHPQERGFQLAVEVDKKGKAIVFTTSKEHAEFKRDQIHAFGADPLSSKNCKGSMSAVIEPSF	I, L, V
PS552: ClpS amino acid recognition protein, SEQ ID NO: 66 (protein, Fimbriiglobus ruber) MSKTSTLPEVESESAQKLKYQPPYHVILLNDDDHSYVYVITMLKELFGHPEQKGYQLADAVDKQGRAIVFTTTREHAELKQEQIHAYGPDPTIPRCKGAMTAVIEPAE	I, L, V
PS432: ClpS amino acid recognition protein, SEQ ID NO: 55 (protein) MIGVEARTSSAPELAIETEIRLAGLWHVIVINDPVNLMSYVVMVLRKIFGFDDTKARKHMLEVHENGRSIVWSGEREPAEAYANTLHQWHLSAVLERDETD	F, W
PS548: ClpS amino acid recognition protein, SEQ ID NO: 62 (protein, listed as Gemmataceae bacterium) MSDTITLPEEKTDVRTKRQPPYHVILLNDDDHTYQYVIYMLQTLFGHPPETGFKMAQEVDKTGRVIVDTTSLERAELKRDQIHAFGPDPYIERCKGSMSAMIEPSE	I, L, V
PS545: ClpS amino acid recognition protein, SEQ ID NO: 59 (protein, listed as Planctomycetales bacterium) MSEPMTLPAIPQPRLKERTQRQPPYNVILLNDDDHSYEYVIAMLQVLFGYPREKGYQMAKEVDSTGRVILLTTTREHAELKQEQIHAFGPDPLMARCQGSMTAVIEPAV	I, L, V
PS424: ClpS amino acid recognition protein, SEQ ID NO: 47 (protein) MSVETIEKRSTTRKLAPQYRVLLHNDDYNSMEYVVQVLMTSVPSITQPQAVNIMMEAHNSGLALVITCAQEHAEFYCETLKGHGLSSTIEPD	F, Y, W
PS557: ClpS amino acid recognition protein, SEQ ID NO: 71 (protein, listed as Planctomycetia bacterium) MPTAASATESAIEDTPAPARPEVDGRTKPKRQPRYHVVLWNDDDHTYQYVVVMLQSLFGHPPERGYRLAKEVDTQGRVIVLTTTREHAELKRDQIHAFGYDRLLARSKGSMKASIEAEE	I, L, V
PS560: ClpS amino acid recognition protein, SEQ ID NO: 74 (protein, listed as Planctomycetes bacterium) MTETITTPAERTQTQAEPRSDRAWLWNVVLLDDDEHTYEYVIRMLHTLFGMPVERAFRLAEEVDARGRAVVLTTHKEHAELKRDQVHAFGKDALIASCAGSMSAVLEPAECGSDDED	I, L, V
PS427: ClpS amino acid recognition protein, SEQ ID NO: 50 (protein) MSTKEKVKERVREKEAISFNNEIIVYNDDVNTFDHVIETLIRVCNHTPEQAEQCSLIVHYNGKCTVKTGSMDKLKPQCTQLLEAGLSAEIV	F, W
PS430: ClpS amino acid recognition protein, SEQ ID NO: 53 (protein) MQPFEETYTDVLDEVVDTDVHNLVVFNDDVNTFDHVIETLIDVCKHTPEQAEQCTLLIHYKGKCSVKNGSWEELVPMRNEICRRGISAEVLK	F, Y, W, L
PS547: ClpS amino acid recognition protein, SEQ ID NO: 61 (protein, listed as Gemmataceae bacterium) MGFPTDFRQSIEISTPLGSQQPRFSNASSEPALADPVLVINPRIQPRYHVILLNDDDHTYRYVIEMMLIVFGHPPEKGFLIAKEVDKAGRAICLTTSLEHAEFKQEQVHAYGADPYFGPKCKGSMTAVLEPAE	I, L, V
PS549: ClpS amino acid recognition protein, SEQ ID NO: 63 (protein, listed as Planctomycetes bacterium) MSESITTLPKKSRRLKEEEEQKTKRQPPYNVILLNDDDHTFEYVIFMLQKLFGHPPERGMQMAKEVHTTGRVIVMTTALELAELKRDQIHAFGPDPLIDRCKGSMSATIEPAPI	I, L, V
PS555: ClpS amino acid recognition protein, SEQ ID NO: 69 (protein, listed as Planctomycetes bacterium) MADSAQTGVAEPIQETLRRRKLRDDRRPKRQPPYHVILWNDNDHTYAYVVVMLMQLFGYPAEKGYQLASEVDTQGRAVVLTTTKEHAELKRDQIHAYGKDGLIEKCKGSMWATIEPAPGE	I, L, V
PS556: ClpS amino acid recognition protein, SEQ ID NO: 70 (protein, listed as Blastopirellula marina) MGDSNTSVAEPGEVTVVTTKPAPKKAKPKRQPKYHVVLWNDDDHTYEYVILMMHELFGHPVEKGFQIAKTVDADGRAICLTTTKEHAELKRDQIHAYGKDELIARCRGSMSSTIEPEC	I, L, V
PS372: ClpS amino acid recognition protein, SEQ ID NO: 5 (protein) MAFPARGKTAPKNEVRRQPPYNVILLNDDDHTYRYVIEMLQKIFGFPPEKGFQIAEEVDRTGRVILLTTSKEHAELKQDQVHSYGPDPYLGRPCSGSMTCVIEPAV	L, I, V
PS551: ClpS amino acid recognition protein, SEQ ID NO: 65 (protein, listed as Rubrobacter indicoceani) MPSAAPAKPKTKRQSRTQGMPPYNVVLLDDDDHTYGYVIEMLNKVFGHPPEKGFELATEVDKNGRVIVMTTNLEVAELKRDEVHAFGPDPLMPRSKGSMSAVVERAG	I, L, V
PS554: ClpS amino acid recognition protein, SEQ ID NO: 68 (protein, listed as Planctomycetia bacterium) MSDSASATVEVQADPPADATARSQPTPARSTGSKPKRQPRYHVVLWNDDDHTYEYVIAMLRRLFGIEPEKGFRIAEEVDQSGRAVVLTTTREHAELKRDQIHAFGADRLLARSKGSMSASIEPEA	I, L, V
PS433: ClpS amino acid recognition protein, SEQ ID NO: 56 (protein) MMSSLKECSIQALPSLDEKTKTEEDLSVPWKVIVLNDPVNLMSYVVMVFRKVFGYNENKATKHMMEVHQLGKSVLWTGQREEAECYAYQLQRWRLQTILEKDD	F, Y, W, L
PS546: ClpS amino acid recognition protein, SEQ ID NO: 60 (protein, listed as Planctomycetia bacterium) MSDTITLPGRPEVERDERTRRQPPYNVILHNDDDHTFEYVIVMLNQLFGYPPEKGYEMAKEVHLNGRVIVLTTSKEHAELKRDQIHAFGPDPFSSKDCKGSMSASIEPAY	I, L, V
PS558: ClpS amino acid recognition protein, SEQ ID NO: 72 (protein, listed as Planctomycetia bacterium) MTATTADPDRTTAEKTTKKARRSGQPKRQPRYHVILWNDNDHTYQYVVAMLQQLFGHPATTGLKLATEVDRTGRAVILTTTREHAELKRDQIHAFGADRLLARSKGAMSASIEPEAE	I, L, V
